This note sets out measurements from patent US20240083971A1, “IMMUNE EFFECTOR CELL COVALENT IMMUNE RECRUITING (CIR) MOLECULES AND METHODS AND USES THEREOF” (McMaster University, priority 2022, published 2024).

In data set [1] the target is T1, CD64 (Homo sapiens, UniProt P12314). Briefly: Koff (s^-1). On the procedure:
(§1) Table printed on a drawing sheet, FIG. 8A
Head of the field: Koff (s^-1)
(§2) The patent's description of the figure: FIG. 8A-8B depicts results for the CP-33(N-term “Y” insertion mutant). […] (Note: the linker-biotin is attached to the azide; DBCO-Biotin not shown).
(§3) First copying reader's note: The name cp33-nt-tyr is printed with the structure in FIG. 8B on the same sheet; per the description, the BLI kinetics were measured with its linker-biotin conjugate binding to human CD64.
Target sequence in this assay (P12314 16-374 limits assumed): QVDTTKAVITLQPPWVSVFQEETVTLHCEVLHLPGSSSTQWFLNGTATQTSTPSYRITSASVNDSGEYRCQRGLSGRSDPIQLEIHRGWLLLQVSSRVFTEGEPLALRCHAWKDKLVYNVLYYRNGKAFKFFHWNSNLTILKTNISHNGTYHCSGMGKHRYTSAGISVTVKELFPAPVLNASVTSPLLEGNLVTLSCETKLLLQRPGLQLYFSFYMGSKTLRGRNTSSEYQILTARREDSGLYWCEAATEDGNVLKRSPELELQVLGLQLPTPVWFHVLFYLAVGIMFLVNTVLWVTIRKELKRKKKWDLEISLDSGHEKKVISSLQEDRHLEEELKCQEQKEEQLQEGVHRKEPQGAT

The target of data set [2] is T1, CD64. Briefly: Kon (M^-1 s^-1). On the procedure:
as §1
Target sequence in this assay (P12314 16-374 limits assumed): as above
Head of the field: Kon (M^-1 s^-1)
as §2, §3

The nature of data set [3]: LC-MS stability in aqueous conditions at room temperature. Conditions: over 27 hours.
Description: The stability of the three sulfonyl fluoride variants in aqueous conditions at room temperature were then assessed using LC-MS. LC-MS measurements were taken over 27 hours and peaks on the UV chromatogram were monitored for CIR degradation (FIG. 19-21).
The target in the next data set is T2, CD64 on live U937 cells (Homo sapiens, UniProt P12314).
T2 construct: endogenous in cells
Briefly: CIR-biotin labeling of CD64 on live U937 cells detected with streptavidin-PE. The class given is cell-based. Conditions: 24 hours at 37° C. with IFNγ. On the procedure:
CIR-biotin was incubated with U937 cells for 24 hours at 37° C. along with IFNγ. The cells were then washed and incubated with streptavidin-PE. The streptavidin binds tightly to the biotin on the CIR and the fluorescent PE signal was read. cP33-ct-aryl SuFEx (CT), cP33-int-aryl SuFEx (INT), cP33-nt-aryl SuFEx (NT), and a noncovalent analog were incubated at increasing concentrations.
The ability of the three sulfonyl fluoride CIR variants to label CD64 on the surface of live cells was assayed using CIRs clicked to a biotin handle. CIR-biotin was incubated with U937 cells for 24 hours at 37° C. along with IFNγ. Post reaction, the cells were washed and incubated with streptavidin-PE. The streptavidin binds tightly to the biotin on the CIR and the fluorescent PE signal was read using a BD LSRII flow cytometer (FIG. 24). 100X CIR not labelled with biotin was used as competitor control to assess specificity and covalency (FIG. 25).

Data set [4] addresses T1, CD64. Briefly: fluorescent SDS-PAGE covalent labelling kinetics of CD64. It is filed as binding. The note with it: 1.6 μM CIR, 800 nM CD64, one-phase association fit. How it is done: Dark bands show A647 fluorescence as measured using the Cy5 channel and represent covalent CIR binding. 1.6 μM of CIR was incubated with 800 nM CD64 for different amounts of time before being run on a SDS-PAGE gel.
The fluorescence intensity of each band in FIG. 17A-17C was measured and then compared to the fluorescence intensity of the band at 100% fraction labelled (where the fluorescence intensity reaches a plateau) to make a fraction bound vs time graph. The curve of the graph was fitted to a one-phase association curve in GraphPad Prism 8 to find the Kobs.
The kinetics of the labelling reaction was also investigated using fluorescent SDS-PAGE gels similar to as described above. 1.6 μM of CIR was incubated with 800 nM CD64 for different amounts of time before being run on a SDS-PAGE gel (FIG. 17). The fluorescence intensity of each band was then measured and then compared to the fluorescence intensity of the band at 100% fraction labelled (where the fluorescence intensity reaches a plateau) to make a fraction bound vs time graph (FIG. 18). The curve of the graph was fitted to a one-phase association curve to find the Kobs.
Target sequence in this assay (P12314 16-374): as the sequence (P12314 16-374 limits assumed) above

In data set [5] the target is T1, CD64. Briefly: fluorescent SDS-PAGE covalent labelling specificity of sulfonyl fluoride CIRs (CD64, CD16, BSA). It is filed as binding. The note with it: 1.6 μM CIR-A647, 800 nM protein, 7 hours, room temperature. On the procedure:
Dark bands show A647 fluorescence as measured using the Cy5 channel and represent covalent CIR binding. For each sample, 1.6 μM CIR clicked to A647 fluorescent dye was incubated with 800 nM of protein for 7 hours.
The specificity of the three sulfonyl fluoride CIR variations for labelling CD64 were investigated using a fluorescent SDS-PAGE assay similar to as described above (FIG. 16). 1.6 μM CIR clicked to A647 fluorescent dye was incubated with 800 nM of protein for 7 hours at room temperature in the dark. Three different proteins were assayed to test specificity: CD64, CD16, and BSA. The samples were then run on a 4-20% gradient acrylamide gel and fluorescence was measured using the Cy5 channel with an Amersham Typhoon biomolecular imager. Only covalently labelled CIR will remain bound to CD64 in SDS-PAGE giving rise to fluorescent bands.
Target sequence in this assay (P12314 16-374): as the sequence (P12314 16-374 limits assumed) above

Data set [6] concerns the target T3, human CD64 (recombinant) (human, UniProt P12314 16-288, limits assumed).
T3 construct: Recombinant protein in solution, or biotinylated on streptavidin biosensors; Some passages print only 'CD64'; also called huCD64; biotinylated huCD64
Description: fluorescence SDS-PAGE covalent labelling kinetics, 1.6 µM CIR with 800 nM CD64, one-phase association fit.

Data set [7] addresses T4, human CD64 (recombinant) (human, UniProt P12314 16-288).
T4 chain: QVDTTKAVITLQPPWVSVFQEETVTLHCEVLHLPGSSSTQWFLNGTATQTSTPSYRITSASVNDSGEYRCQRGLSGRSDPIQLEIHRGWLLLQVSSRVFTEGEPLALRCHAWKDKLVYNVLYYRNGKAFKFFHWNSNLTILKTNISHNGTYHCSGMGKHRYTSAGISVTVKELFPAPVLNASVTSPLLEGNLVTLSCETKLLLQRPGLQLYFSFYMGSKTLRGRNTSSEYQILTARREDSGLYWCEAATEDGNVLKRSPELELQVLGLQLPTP
Description: BLI. (BLI is a label-free optical method that tracks binding on a fibre tip over time.)

Data set [8] addresses T4, human CD64 (recombinant). Description: BLI; 100 nM CD64.
The target of data set [9] is T4, human CD64 (recombinant). Briefly: BLI; 12.5 nM CD64.
Data set [10] deals with T4, human CD64 (recombinant). Briefly: BLI; 50 nM CD64.
In data set [11] the target is T4, human CD64 (recombinant). Briefly: BLI; 25 nM CD64.
The target in data set [12] is T4, human CD64 (recombinant). Description: BLI; 200 nM CD64.
The target of data set [13] is T4, human CD64 (recombinant). Briefly: BLI; 50 nM CD64.
The target of data set [14] is T4, human CD64 (recombinant). Briefly: BLI; 100 nM CD64.

Bridges are numbered along the chain shown (N, C = ends). Primed or numbered codes have the meaning given here. Where no end group is shown, it is not given here. [ ]: non-standard residue; d: D form. The star is where a group is joined. Biotin = O=C1N[C@H]2[C@H](CS[C@H]2CCCCC(=O)*)N1; Benzoyl(3-SO2F) = O=C(c1cccc(S(=O)(=O)F)c1)*; Lys(N3) = [N-]=[N+]=NCCCC[C@H](N)C(=O)O; azido = azide group (monovalent —N3); DBCO′ = not defined here; PEG4′ = not defined here

T2 sequence (P12314 16-374): as the sequence (P12314 16-374 limits assumed) above

In the case of `CC(=O)N[C@@H](CCCCN=[N+]=[N-])C(=O)NCC(=O)N[C@@H](Cc1ccc(O)cc1)C(=O)N[C@H](C(=O)N[C@@H](CC(N)=O)C(=O)N[C@@H](CO)C(=O)N[C@H]1CSSC[C@@H](C(=O)NCC(=O)N[C@@H](CC(=O)O)C(=O)N[C@@H](CC(=O)O)C(N)=O)NC(=O)CNC(=O)[C@H](CC(C)C)NC(=O)[C@H](CC(C)C)NC(=O)[C@H](CC(N)=O)NC(=O)[C@@H]2CCCN2C(=O)[C@H](CC(C)C)NC(=O)[C@H](CC(C)C)NC(=O)[C@H](CC(C)C)NC1=O)C(C)C` [cp33-nt-tyr], the off-rate (koff) (in general, a measure of how fast the partners let go of each other) on CD64 [1] worked out at 0.00711 s⁻¹. The kon (usually the rate constant with which the complex forms) on CD64 [2] turned out to be 332000 M⁻¹ s⁻¹.
“cP33 ct-aryl SuFEx: cP33 peptide with the sulfonyl fluoride group at the C-terminus; SEQ ID NO: 12 ([Lys(N3)]VNSCLLLPNLLGCDGDK(Benzoyl(3-SO2F)); disulfide 5-14; not fully specified)”: in [3], the “stability in aqueous conditions (degradation peaks in UV trace)” value is recorded as “some slight degradation peaks by 27 hours”. Moreover, the “covalent labelling of CD64 on live cells (streptavidin-PE signal)” value in the data set with CD64 on live U937 cells was “specific and effective covalent labelling of CD64 on the surface of live cells”. The Kobs with CD64 [4] worked out at 6.7e-05 s⁻¹. Also, the “covalent labelling preference for CD64 vs CD16 and BSA” value with CD64 [5] is recorded as “greater binding selectivity compared to the other variants”.
On to “cP33 int-aryl SuFEx: cP33 peptide with the sulfonyl fluoride at an internal position replacing leucine; SEQ ID NO: 14 ([Lys(N3)]VNSCLLLPNK(Benzoyl(3-SO2F))LGCDGD; disulfide 5-14; not fully specified)”, for which the “stability in aqueous conditions (degradation peaks in UV trace)” value in data set [3] was “noticeable degradation peaks by 27 hours”. Besides, the Kobs with CD64 [4] was 9.2e-05 s⁻¹.
As to [Lys(N3)]VNSCLLLPNK(Benzoyl(3-SO2F))LGCDGD (disulfide 5-14; also: X1 azide clicked to DBCO-A647 or DBCO-biotin) [cP33-int-aryl SuFEx], in the data set with human CD64 (recombinant) [6], the Kobs is 9.2e-05 s⁻¹.
In the case of {Biotin-PEG4′-DBCO′-azido}-VNSCLLLPNLLGCGDD (disulfide 4-13; not fully specified) [native CP-33-linker-biotin conjugate], the Kd – broadly, the equilibrium constant for the complex coming apart – with human CD64 (recombinant) [7] turned out to be 56 nM.

B1: CP-33(C-term "Y" insertion mutant)-linker-biotin conjugate (peptide)
peptide: XVNSCLLLPNLLGCGDDY
modifications: not fully specified; X1 is K, Ac-K(azido), or absent (azide clicked to DBCO-peg4-biotin); disulfide bond between C5 and C14; C-terminal amidation present or absent
For the molecule B1, the Kd was determined as 4 nM in the data set with human CD64 (recombinant) [8], 2 nM in the data set with human CD64 (recombinant) [9], 3 nM in the data set with human CD64 (recombinant) [10] and 2.6 nM with human CD64 (recombinant) [11].
[Lys(N3)]VNSCLLLPNLLGCDGDK(Benzoyl(3-SO2F)) (disulfide 5-14; also: X1 azide clicked to DBCO-A647 or DBCO-biotin) [cP33-ct-aryl SuFEx]: the Kobs in the data set with human CD64 (recombinant) [6] came to 6.7e-05 s⁻¹.

B2: CP-33(N-term "Y" insertion mutant)-linker-biotin conjugate (peptide)
peptide: XGYVNSCLLLPNLLGCGDD
modifications: not fully specified; X1 is K, Ac-K(azido), or absent (azide clicked to DBCO-peg4-biotin); disulfide bond between C7 and C16; C-terminal amidation present or absent
As to B2, the Kd came out at 20.8 nM in the data set with human CD64 (recombinant) [12], 17.9 nM in the data set with human CD64 (recombinant) [13] and 18.2 nM with human CD64 (recombinant) [14].
